Laboratory results reported in patent US20040038369A1, “Airway-specific trypsin-like enzymes and method of using the same” (priority 2000, published 2004).

Assays:
Format in all cases: cell-based
[1] = tested on: BEAS-2B; test: Calcium influx in airway epithelial cell strain BEAS-2B; conditions: AST 2 units/mL; trypsin 10 to 100 units/mL; SFLLRNamide 100 μM
Protocol: The Ca^2+ influx due to the AST was examined with respect to an airway epithelial cell strain BEAS-2B. The confluent cells adhered to six 10 cm dishes were used. The cells were peeled with a 10 mM EDTA/HEPES-Tyrode buffer solution for 10 minutes, recovered by a centrifugal treatment at 1,500 rpm at room temperature for 5 minutes, and then resuspended in 10 mL of HEPES-Tyrode buffer solution-Ca^2+ (−) pH 7.4. The recovered cells (about 1.1×10^7 cells) were suspended in 11 mL of HEPES-Tyrode buffer solution (1 μg/mL, containing Fura2-AM) to load the Fura2-AM at 37° C. for 30 minutes. The cells were recovered by a centrifugal treatment at 1,500 rpm at room temperature for 5 minutes, twice washed with HEPES-Tyrode buffer solution-Ca^2+ (−) pH 7.4, and then resuspended in 11 mL of HEPES-Tyrode buffer solution-Ca^2+ (−) pH 7.4. The cell suspension was mixed with […] of 1M CaCl2 to give a final concentration of 1 mM CaCl2, and then incubated in a shaded state at room temperature for 5 minutes. The prepared Fura2-AM-loaded infected cells were dispensed into a 96 well plate in a volume of 100 μL/well, further subjected to the dispensation of HEPES-Tyrode buffer solution-Ca^2+ (+) pH 7.4 in a volume of 80 μL/well, and then assayed with Fluorescence Drug Screening System (Hamamatsu Photonics Co.). […]

[2] = molecular target: T1, PAR-1 (Homo sapiens, UniProt P25116); test: Calcium influx in PAR-1-expressing insect cells; conditions: AST 2 units/mL; trypsin, thrombin 0.1 to 10 units/mL; SFLLRNamide 10 to 100 μM
T1 construct: expressed in transfected cells; host or cells: Sf9 insect cells infected with recombinant baculovirus VL-PAR (pVL1393)
T1 sequence (P25116 22-425): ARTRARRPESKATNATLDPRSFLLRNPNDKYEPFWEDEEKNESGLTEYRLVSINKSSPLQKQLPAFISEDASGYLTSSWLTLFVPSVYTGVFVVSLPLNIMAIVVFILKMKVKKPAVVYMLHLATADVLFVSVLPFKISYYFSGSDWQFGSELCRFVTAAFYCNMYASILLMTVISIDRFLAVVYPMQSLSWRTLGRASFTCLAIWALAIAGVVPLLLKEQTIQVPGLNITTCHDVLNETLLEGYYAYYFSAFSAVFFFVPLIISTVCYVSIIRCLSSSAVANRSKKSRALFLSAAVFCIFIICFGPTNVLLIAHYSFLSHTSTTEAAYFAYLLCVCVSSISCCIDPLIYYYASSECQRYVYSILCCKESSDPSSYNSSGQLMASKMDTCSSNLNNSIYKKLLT
Protocol: The recovered infected cells (about 5×10^6 cells) were once washed with HEPES-Tyrode buffer solution-Ca^2+ (−) pH 7.4, and then suspended in 5 mL of HEPES-Tyrode buffer solution (containing Fura2-AM, 1 μg/mL) to load the Fura2-AM on the cells at 27° C. for 30 minutes. The suspension was centrifuged at 800 rpm at room temperature for 5 minutes to recover the cells. The cells were twice washed with HEPES-Tyrode buffer solution-Ca^2+ (−) pH 7.4 and then resuspended in 5 mL of HEPES-Tyrode buffer solution-Ca^2+ (−) pH 7.4. The cell suspension was mixed with 5 μL of 1M CaCl2 to give a final concentration of 1 mM CaCl2, and then incubated in a shaded state at room temperature for 5 minutes. The prepared Fura2-AM-loaded infected cells were dispensed into a 96 well plate in a volume of 100 μL/well, further subjected to the dispensation of HEPES-Tyrode buffer solution-C^2+ (+) pH 7.4 in a volume of 80 μL/well, and then assayed with a Fluorescence Drug Screening System (made by Hamamatsu Photonics Co.). Namely, [intensity of 500 nm fluorescent light due to 340 nm exciting light]/[intensity of 500 nm fluorescent light due to 380 nm exciting light] (reflecting the concentration of calcium in the cells) was assayed.

[3] = tested on: normal human airway epithelial cells; test: Calcium influx in normal human airway epithelial cells; conditions: AST 2 units/mL; trypsin 10 to 100 units/mL; SFLLRNamide 100 μM
Protocol: The Ca^2+ influx due to the AST was examined with confluent normal epithelial cells adhered to three 10 cm dishes (purchased from BioWhittaker Corp.). The cells were peeled with a 10 mM EDTA/HEPES-Tyrode buffer solution for 10 minutes, recovered by a centrifugal treatment at 800 rpm at room temperature for 5 minutes, and then resuspended in 5 mL of HEPES-Tyrode buffer solution-Ca^2+ (−) pH 7.4. The recovered cells (about 1.2×10^6 cells) were suspended in 5 mL of HEPES-Tyrode buffer solution (1 μg/mL, containing Fura2-AM) to load the Fura2-AM to the cells at 37° C. for one hour. The cells were recovered by a centrifugal treatment at 800 rpm at room temperature for 5 minutes, twice washed with HEPES-Tyrode buffer solution-Ca^2+ (−) pH 7.4, and then resuspended in […] of HEPES-Tyrode buffer solution-Ca^2+ (−) pH 7.4. The cell suspension was mixed with 5 μL of 1M CaCl2 to give a final concentration of 1 mM CaCl2, and then incubated in a shaded state at room temperature for 5 minutes. The prepared Fura2-AM-loaded infected cells were dispensed into a 96 well plate in a volume of 100 μL/well, further subjected to the dispensation of HEPES-Tyrode buffer solution-Ca^2+ (+) pH 7.4 in a volume of 80 μL/well, and then assayed with Fluorescence Drug Screening System (Hamamatsu Photonics Co.). […]

[4] = molecular target: T2, PAR-4 (Homo sapiens, UniProt Q96RI0); test: Calcium influx in PAR-4-expressing insect cells; conditions: AST 2 units/ml; trypsin, thrombin 0.1 to 10 units/mL
T2 construct: expressed in transfected cells; host or cells: Sf9 insect cells infected with recombinant baculovirus VL-PAR (pVL1393)
T2 sequence (Q96RI0 18-385): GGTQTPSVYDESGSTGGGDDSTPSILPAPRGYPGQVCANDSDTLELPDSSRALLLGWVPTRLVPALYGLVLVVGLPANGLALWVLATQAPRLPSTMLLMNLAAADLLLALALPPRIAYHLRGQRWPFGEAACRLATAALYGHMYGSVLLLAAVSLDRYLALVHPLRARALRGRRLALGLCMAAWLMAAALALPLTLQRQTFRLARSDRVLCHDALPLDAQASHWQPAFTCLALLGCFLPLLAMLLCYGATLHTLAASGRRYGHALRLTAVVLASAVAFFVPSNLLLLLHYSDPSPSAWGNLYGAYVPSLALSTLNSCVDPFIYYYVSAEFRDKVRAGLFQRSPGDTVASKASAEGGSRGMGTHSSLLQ
Protocol: (§1) The above-obtained recombinant baculovirus VL-PAR for expressing the PAR was used to infect 1.0×10^7 Sf9 cells sowed on a 75 cm^2 flask at an MOI=2, and was then left and stationally cultured at 27° C. for 40 hours. After the culture, the infected cells were recovered and then subjected to a calcium influx experiment to-confirm the function of the PAR.
(§2) The recovered infected cells (about 5×10^6 cells) were once washed with HEPES-Tyrode buffer solution-Ca^2+ (−) pH 7.4, and then suspended in 5 mL of HEPES-Tyrode buffer solution (containing Fura2-AM, 1 μg/mL) to load the Fura2-AM on the cells at 27° C. for 30 minutes. The suspension was centrifuged at 800 rpm at room temperature for 5 minutes to recover the cells. The cells were twice washed with HEPES-Tyrode buffer solution-Ca^2+ (−) pH 7.4 and then resuspended in 5 mL of HEPES-Tyrode buffer solution-Ca^2+ (−) pH 7.4. The cell suspension was mixed with 5 μL of 1M CaCl2 to give a final concentration of 1 mM CaCl2, and then incubated in a shaded state at room temperature for 5 minutes. The prepared Fura2-AM-loaded infected cells were dispensed into a 96 well plate in a volume of 100 μL/well, further subjected to the dispensation of HEPES-Tyrode buffer solution-C^2+ (+) pH 7.4 in a volume of 80 μL/well, and then assayed with a Fluorescence Drug Screening System (made by Hamamatsu Photonics Co.). […]

[5] = molecular target: T3, PAR-2 (Homo sapiens, UniProt P55085); test: Calcium influx in PAR-2-expressing insect cells; conditions: AST 2 units/mL; trypsin, thrombin 0.1 to 10 units/mL; SFLLRNamide, SLIGRL 10 to 100 μM
T3 construct: expressed in transfected cells; host or cells: Sf9 insect cells infected with recombinant baculovirus VL-PAR (pVL1393)
T3 sequence (P55085 26-397): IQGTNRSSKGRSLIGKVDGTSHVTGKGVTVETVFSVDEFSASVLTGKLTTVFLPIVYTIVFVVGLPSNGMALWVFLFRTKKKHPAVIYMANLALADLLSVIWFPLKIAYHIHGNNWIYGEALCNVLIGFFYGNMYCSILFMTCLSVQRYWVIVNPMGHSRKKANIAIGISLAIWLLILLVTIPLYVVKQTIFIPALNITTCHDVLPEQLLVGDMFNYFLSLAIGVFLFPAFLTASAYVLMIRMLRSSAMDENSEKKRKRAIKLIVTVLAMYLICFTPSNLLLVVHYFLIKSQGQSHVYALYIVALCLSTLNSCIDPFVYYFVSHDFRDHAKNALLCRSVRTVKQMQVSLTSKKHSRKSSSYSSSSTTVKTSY
Protocol: as §1, §2

Measured: Ca2+ influx

B1: trypsin: trypsin originated from bovine pancreas (protein)
chain: IVGGYTCGANTVPYQVSLNSGYHFCGGSLINSQWVVSAAHCYKSGIQVRLGEDNINVVEGNEQFISASKSIVHPSYNSNTLNNDIMLIKLKSAASLNSRVASISLPTSCASAGTQCLISGWGNTKSSGTSYPDVLKCLKAPILSDSSCKSAYPGQITSNMFCAGYLEGGKDSCQGDSGGPVVCSGKLQGIVSWGSGCAQKNKPGVYTKVCNYVSWIKQTIASN
observed: all assays above
